Reference: patent publication US20120301493A1 (UNIVERSIDADE DE SANTIAGO DE COMPOSTELA, published 2012)

B1: muNS (1-448)-HA (other)
chain: MASTKWGDKPMSVSMSHDGSSIRSAASQFLSGPLFHSTPIPPQRKTVLLKFMIGDELVTVQGALAPFDEYWYDNQPLLAQAVEMLASADRLRQFEHYEKFLLKKGHQITEIMNRLRLFFTDVLKVKMEADALPALAQYLMVGTLEAVSTADSPDACVPVTSKILAKQQTIAKSPGRLDEEEYNVIRSRFLTHEVFDLTSDLPGVQPFMDMYYATVPRADSTGWCVYRRKGLLIHAPDEQFSDLTIFSTRLTASRELQLVAGDVAVACFDLMDVSDIAPSHHASVQEERTLGTSRYSNVTANDHPLVFFSPSALRWAIDHACTDSLVSTRNIRVCVGIDPLVTRWTRDGVQEAAILMDDKLPSAGRARMALRTLLLARRSPMTSFLLGALKQSGGQLMEHYRCDAANRYGSPTVPVSHSPPCSKCPELKEQITKLSSSPLPKIDSNVGP
notes: also called N-terminus domain (muNS(1-448)); N-terminus region
B2: muNS (1-154)-HA (other)
chain: MASTKWGDKPMSVSMSHDGSSIRSAASQFLSGPLFHSTPIPPQRKTVLLKFMIGDELVTVQGALAPFDEYWYDNQPLLAQAVEMLASADRLRQFEHYEKFLLKKGHQITEIMNRLRLFFTDVLKVKMEADALPALAQYLMVGTLEAVSTADSPD
B3: muNS (1-380)-HA (other)
chain: MASTKWGDKPMSVSMSHDGSSIRSAASQFLSGPLFHSTPIPPQRKTVLLKFMIGDELVTVQGALAPFDEYWYDNQPLLAQAVEMLASADRLRQFEHYEKFLLKKGHQITEIMNRLRLFFTDVLKVKMEADALPALAQYLMVGTLEAVSTADSPDACVPVTSKILAKQQTIAKSPGRLDEEEYNVIRSRFLTHEVFDLTSDLPGVQPFMDMYYATVPRADSTGWCVYRRKGLLIHAPDEQFSDLTIFSTRLTASRELQLVAGDVAVACFDLMDVSDIAPSHHASVQEERTLGTSRYSNVTANDHPLVFFSPSALRWAIDHACTDSLVSTRNIRVCVGIDPLVTRWTRDGVQEAAILMDDKLPSAGRARMALRTLLLARRSP

These binders were tested against muNS-Mi, region 448-635 of avian reovirus S1133 muNS protein (avian Orthoreovirus (avian reovirus …)) (assay: co-expression with muNS-Mi in CEF cells, anti-HA immunofluorescence).
B1: no binding.
B2: no binding.
B3: no binding.
